B1: Probable proton-coupled zinc antiporter SLC30A3 (Homo sapiens), Q99726 (parent)
chain: MEPSPAAGGLETTRLVSPRDRGGAGGSLRLKSLFTEPSEPLPEESKPVEMPFHHCHRDPLPPPGLTPERLHARRQLYAACAVCFVFMAGEVVGGYLAHSLAIMTDAAHLLADVGSMMGSLFSLWLSTRPATRTMTFGWHRSETLGALASVVSLWMVTGILLYLAFVRLLHSDYHIEGGAMLLTASIAVCANLLMAFVLHQAGPPHSHGSRGAEYAPLEEGPEEPLPLGNTSVRAAFVHVLGDLLQSFGVLAASILIYFKPQYKAADPISTFLFSICALGSTAPTLRDVLRILMEGTPRNVGFEPVRDTLLSVPGVRATHELHLWALTLTYHVASAHLAIDSTADPEAVLAEASSRLYSRFGFSSCTLQVEQYQPEMAQCLRCQEPPQA
partner: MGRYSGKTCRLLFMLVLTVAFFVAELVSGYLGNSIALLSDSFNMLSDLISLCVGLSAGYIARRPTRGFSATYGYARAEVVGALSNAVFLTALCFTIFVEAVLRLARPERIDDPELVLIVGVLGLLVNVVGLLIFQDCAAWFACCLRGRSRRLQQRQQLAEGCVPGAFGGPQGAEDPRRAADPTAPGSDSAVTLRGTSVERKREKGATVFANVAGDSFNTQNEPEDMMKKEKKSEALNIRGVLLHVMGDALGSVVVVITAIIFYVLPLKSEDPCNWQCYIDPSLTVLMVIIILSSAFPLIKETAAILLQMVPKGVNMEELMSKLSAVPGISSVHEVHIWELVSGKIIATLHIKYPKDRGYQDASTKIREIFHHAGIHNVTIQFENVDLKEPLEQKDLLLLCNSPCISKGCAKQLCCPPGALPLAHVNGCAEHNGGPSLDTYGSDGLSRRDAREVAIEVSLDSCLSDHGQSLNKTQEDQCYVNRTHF
B2: Probable proton-coupled zinc antiporter SLC30A3 (Homo sapiens), Q99726 (parent)
chain: B1 chain
partner: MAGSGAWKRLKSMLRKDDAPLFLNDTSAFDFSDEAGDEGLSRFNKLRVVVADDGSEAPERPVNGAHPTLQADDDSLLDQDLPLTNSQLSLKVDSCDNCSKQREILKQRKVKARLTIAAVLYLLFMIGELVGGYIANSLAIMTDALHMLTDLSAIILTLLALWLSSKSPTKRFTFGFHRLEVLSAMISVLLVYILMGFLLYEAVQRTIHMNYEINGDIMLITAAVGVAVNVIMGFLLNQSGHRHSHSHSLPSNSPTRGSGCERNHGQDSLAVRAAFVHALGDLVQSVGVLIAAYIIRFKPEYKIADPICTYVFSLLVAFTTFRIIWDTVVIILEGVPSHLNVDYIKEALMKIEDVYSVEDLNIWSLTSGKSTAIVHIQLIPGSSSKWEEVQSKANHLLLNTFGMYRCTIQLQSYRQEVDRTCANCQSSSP
B3: Calcium/manganese antiporter SLC30A10 (Homo sapiens), Q6XR72 (parent)
chain: B1 partner
partner: B1 chain

Variants of: B1
Details: with znt10_human SLC30A10, Q6XR72

| Variant | effect of a mutation on the interaction |
| --- | --- |
| Y262F | decreasing interaction strength |
| Y257F | decreasing interaction strength |

Variants of: B2
Details: with znt4_human SLC30A4, O14863

| Variant | effect of a mutation on the interaction |
| --- | --- |
| Y257F | decreasing interaction strength |
| Y262F | decreasing interaction strength |

Variants of: B3
Details: with znt3_human SLC30A3, Q99726

| Variant | effect of a mutation on the interaction |
| --- | --- |
| Y4F | decreasing interaction strength |

Source: IntAct's records for PubMed 26728129
